For orientation: Kd means a measure of binding affinity in units of concentration. The low end stands for a tighter complex, the high end for a looser complex.

Assay [1] deals with T1, Snu17p (residues 1-113) (S. cerevisiae, UniProt P40565 1-113).
T1 chain: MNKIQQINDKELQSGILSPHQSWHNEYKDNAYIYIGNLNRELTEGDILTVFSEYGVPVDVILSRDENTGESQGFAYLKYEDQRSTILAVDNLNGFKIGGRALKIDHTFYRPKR
The assay can be described thus: ITC. On the technique in general: ITC needs no label: the signal is the heat of the interaction.

The target of assay [2] is T1, Snu17p (residues 1-113). The assay can be described thus: ITC; first site (KD1).
Assay [3] addresses T1, Snu17p (residues 1-113). The assay can be described thus: ITC; second site (KD2).

Take AIMPGSRWDGVHRS [Bud13p peptide (residues 225-238)]: the Kd in assay [1] was around 60000 nM.

In assay [1], ENRFAIMPGSRWDGVHRSNGFE [Bud13p peptide (residues 221-242)] returned a Kd of 253 nM.

B1: Bud13p (residues 201-266) (domain or fragment)
chain: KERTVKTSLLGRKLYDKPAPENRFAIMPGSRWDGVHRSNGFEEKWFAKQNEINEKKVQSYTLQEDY
As to B1, the values for the Kd in assay [2] and in assay [3] were 6.3 nM and 234 nM, respectively.
